Patent US20220403005

Key:
[1] = system: wild-type B-domain deleted FVIII (FVIII-WT)
[2] = system: FVIII-R336Q/R562Q (FVIII-QQ)
FVIII-R336Q/R562Q (FVIII-QQ), sequence (chain, as listed by the source R336Q R562Q): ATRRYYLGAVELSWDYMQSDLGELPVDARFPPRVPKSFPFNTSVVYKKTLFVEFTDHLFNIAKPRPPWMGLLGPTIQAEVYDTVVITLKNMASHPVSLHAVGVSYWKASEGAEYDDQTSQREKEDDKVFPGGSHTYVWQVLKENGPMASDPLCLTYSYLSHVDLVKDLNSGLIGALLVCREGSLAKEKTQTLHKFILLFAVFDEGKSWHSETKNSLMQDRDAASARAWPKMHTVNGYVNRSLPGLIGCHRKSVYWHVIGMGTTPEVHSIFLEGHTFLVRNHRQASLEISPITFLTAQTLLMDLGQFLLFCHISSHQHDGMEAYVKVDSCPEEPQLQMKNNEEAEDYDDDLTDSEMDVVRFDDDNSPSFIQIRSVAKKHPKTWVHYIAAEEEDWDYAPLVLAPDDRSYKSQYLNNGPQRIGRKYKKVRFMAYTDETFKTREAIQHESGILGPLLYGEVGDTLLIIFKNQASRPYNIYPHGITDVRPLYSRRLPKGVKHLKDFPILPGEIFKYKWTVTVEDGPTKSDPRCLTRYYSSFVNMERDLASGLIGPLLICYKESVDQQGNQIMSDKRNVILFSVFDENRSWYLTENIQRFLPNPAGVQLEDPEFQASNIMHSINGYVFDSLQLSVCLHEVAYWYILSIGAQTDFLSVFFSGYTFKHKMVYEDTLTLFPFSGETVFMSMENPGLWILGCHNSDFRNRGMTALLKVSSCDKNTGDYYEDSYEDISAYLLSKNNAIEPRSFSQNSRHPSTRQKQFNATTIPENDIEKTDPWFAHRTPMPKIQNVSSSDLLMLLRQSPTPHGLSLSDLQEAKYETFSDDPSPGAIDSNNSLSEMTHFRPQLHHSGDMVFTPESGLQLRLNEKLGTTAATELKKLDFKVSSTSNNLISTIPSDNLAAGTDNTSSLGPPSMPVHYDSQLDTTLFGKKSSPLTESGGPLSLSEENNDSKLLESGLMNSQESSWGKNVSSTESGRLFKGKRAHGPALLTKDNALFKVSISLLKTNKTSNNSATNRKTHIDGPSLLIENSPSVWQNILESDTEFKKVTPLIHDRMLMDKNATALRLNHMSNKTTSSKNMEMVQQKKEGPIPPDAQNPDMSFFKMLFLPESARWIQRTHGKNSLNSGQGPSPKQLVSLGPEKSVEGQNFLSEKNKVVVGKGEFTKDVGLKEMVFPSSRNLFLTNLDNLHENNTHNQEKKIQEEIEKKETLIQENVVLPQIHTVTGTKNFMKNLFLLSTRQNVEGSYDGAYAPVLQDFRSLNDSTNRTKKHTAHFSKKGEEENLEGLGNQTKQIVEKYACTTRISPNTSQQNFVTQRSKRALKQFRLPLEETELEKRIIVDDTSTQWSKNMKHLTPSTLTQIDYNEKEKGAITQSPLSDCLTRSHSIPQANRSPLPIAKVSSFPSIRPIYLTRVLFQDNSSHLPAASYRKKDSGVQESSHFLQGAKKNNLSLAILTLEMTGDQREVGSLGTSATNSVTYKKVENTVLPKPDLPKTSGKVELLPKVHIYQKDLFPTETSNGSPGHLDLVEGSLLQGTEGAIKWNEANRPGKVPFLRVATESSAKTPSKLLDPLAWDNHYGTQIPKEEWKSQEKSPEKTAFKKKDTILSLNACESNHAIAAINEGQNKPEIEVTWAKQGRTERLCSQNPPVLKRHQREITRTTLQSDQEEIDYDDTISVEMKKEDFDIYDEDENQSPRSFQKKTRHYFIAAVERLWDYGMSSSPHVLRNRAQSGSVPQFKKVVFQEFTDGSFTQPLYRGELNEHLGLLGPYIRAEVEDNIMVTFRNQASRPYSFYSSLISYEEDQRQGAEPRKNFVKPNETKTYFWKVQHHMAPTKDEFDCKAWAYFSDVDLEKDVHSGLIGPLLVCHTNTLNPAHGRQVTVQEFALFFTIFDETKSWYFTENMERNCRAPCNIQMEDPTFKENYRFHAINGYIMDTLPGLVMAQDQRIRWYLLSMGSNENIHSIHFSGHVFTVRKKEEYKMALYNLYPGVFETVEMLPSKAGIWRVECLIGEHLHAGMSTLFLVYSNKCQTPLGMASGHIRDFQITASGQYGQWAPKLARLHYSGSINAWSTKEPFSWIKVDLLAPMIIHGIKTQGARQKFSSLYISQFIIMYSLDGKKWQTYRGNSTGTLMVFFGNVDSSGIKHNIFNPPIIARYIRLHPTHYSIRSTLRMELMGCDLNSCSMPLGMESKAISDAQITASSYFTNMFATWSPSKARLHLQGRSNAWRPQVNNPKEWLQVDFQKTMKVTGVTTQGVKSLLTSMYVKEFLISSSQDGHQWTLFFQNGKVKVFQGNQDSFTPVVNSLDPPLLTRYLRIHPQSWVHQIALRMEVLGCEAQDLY

wild-type B-domain deleted FVIII (FVIII-WT), sequence (chain, as listed by the source, stated change not applied): as the sequence (chain, as listed by the source R336Q R562Q) above, with Q336R, Q562R counted along it
FVIII-R372Q, sequence (chain, as listed by the source R372Q): as the sequence (chain, as listed by the source R336Q R562Q) above, with Q336R, R372Q, Q562R counted along it

| Substance | loss of FVIII activity (intrinsic Xase assay) after 1-hour APC incubation [1] | residual FVIII activity (intrinsic Xase assay) after incubation with 6 nM APC and 100 nM protein S [1] | residual FVIII activity (intrinsic Xase assay) after 1-hour APC incubation [2] | residual FVIII activity (intrinsic Xase assay) after incubation with 6 nM APC and 100 nM protein S [2] | western blot of reaction products after 30-minute incubation with APC (FVIII-R372Q) | SDS-PAGE of cleavage products after incubation with thrombin [1] | SDS-PAGE of cleavage products after incubation with thrombin [2] |
| --- | --- | --- | --- | --- | --- | --- | --- |
| activated protein C (APC) | FVIII-WT lost approximately 75% activity after a 1-hour APC incubation | FVIII-WT lost nearly all function within 15 minutes of combined APC and PS incubation | the protein maintained >90% activity following a 1-hour APC incubation | combined PS and APC incubation also accelerated FVIII-QQ loss of function, albeit to a lesser extent than FVIII-WT | incubating a FVIII-R372Q mutant with APC, which did not produce the A2 fragment |  |  |
| thrombin |  |  |  |  |  | Thrombin cleaved both proteins to yield fragments representing cleavage at R1689 (A3-C1-C2; Mr=70,000) and R740/R372 (A1, Mr=50,000 and A2, Mr=43,000), corresponding to FVIIIa | Thrombin cleaved both proteins to yield fragments representing cleavage at R1689 (A3-C1-C2; Mr=70,000) and R740/R372 (A1, Mr=50,000 and A2, Mr=43,000), corresponding to FVIIIa |
